In the data set the test system is Bacillus subtilis. The data set can be described thus: cleaved RNA product abundance (RNA/gDNA barcode ratio) relative to median wild-type variant (ratio to wild type); higher = more accumulation of the downstream cleavage product. The note with it: cleavage site: cggR-gapA (positions -7 to +36 mutated). A digest of the protocol: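 Cleaved product abundance is expressed as the RNA:gDNA barcode ratio per construct, scaled to the median construct carrying the unmutated site. The constructs were barcoded, mutagenized RNase Y cleavage-site windows in truncated aprE or tetM reporter mRNAs integrated into the B. subtilis chromosome. Cultures grew in LB at 37°C from OD600 0.0003 to 0.3 before cleaved RNA was gel-selected and barcode-sequenced.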

The mark [1] stands for this setting: experiment (reporter, strain, medium): exp 4a: truncated aprE reporter, strain BJT201 with 2% xylose (RNase J1 expressed).
Where [2] appears, read: experiment (reporter, strain, medium): exp 2b: truncated aprE reporter, strain BJT200.
The mark [3] stands for this setting: experiment (reporter, strain, medium): exp 6: tetM reporter, strain 168.

As to “ACAGACGAAGGAGCCGCAAAGAAGTTATTAAGGGATGAATAATTCCTCTATATAAATATCTCTCACTTATTTAAA”, under setting [1], the “cleaved RNA product abundance” value stood at 0.248.
As for “ACAGACGAAGGAGCCGCAAAGAAGTTATTAAGGGATGAATAATTCCTGAATATAAATATCTCTCACTTATTTAAA”, the “cleaved RNA product abundance” value under setting [1] came out at 0.471.
Regarding “ACAGACGAAGGAGCCGCAAAGAAGTTATTAAGGGATGAATAATTCGTCAATATAAATATCTCTCACTTATTTAAA”, the “cleaved RNA product abundance” value under setting [2] turned out to be 0.0726.
As to “ACAGACGAAGGAGCCGCAAAGAAGTTATTAAGGGATGAATAATTCTTCAATATAAATATCTCTCACTTATTTAAA”, under setting [1], the “cleaved RNA product abundance” value was found to be 0.18.
With “ACAGACGAAGGAGCCGCAAAGAAGTTATTAAGGGATGAATAATTGCTCAATATAAATATCTCTCACTTATTTAAA”, the “cleaved RNA product abundance” value by setting is: under setting [2], 0.0946; under setting [1], 0.0655.
As for “ACAGACGAAGGAGCCGCAAAGAAGTTATTAAGGGATGAATAATTTCTCAATATAAATATCTCTCACTTATTTAAA”, the “cleaved RNA product abundance” value under setting [1] was found to be 0.16.
Turning to “ACAGACGAAGGAGCCGCAAAGAAGTTATTAAGGGATGAATACTACCTCAATATAAATATCTCTCACTTATTTAAA”, the “cleaved RNA product abundance” value under setting [2] turned out to be 0.124 and the “cleaved RNA product abundance” value under setting [1] was 0.168.
As for “ACAGACGAAGGAGCCGCAAAGAAGTTATTAAGGGATGAATACTCACTCAATATAAATATCTCTCACTTATTTAAA”, the “cleaved RNA product abundance” value under setting [1] amounted to 0.0953.
For “ACAGACGAAGGAGCCGCAAAGAAGTTATTAAGGGATGAATACTCCATCAATATAAATATCTCTCACTTATTTAAA”, the “cleaved RNA product abundance” value reads like this: under setting [2], 0.102; under setting [1], 0.137; under setting [3], 0.152.
Turning to “ACAGACGAAGGAGCCGCAAAGAAGTTATTAAGGGATGAATACTCCCACAATATAAATATCTCTCACTTATTTAAA”, under setting [1], the “cleaved RNA product abundance” value is 0.139.
Consider “ACAGACGAAGGAGCCGCAAAGAAGTTATTAAGGGATGAATACTCCCTAAATATAAATATCTCTCACTTATTTAAA”, for which the “cleaved RNA product abundance” value under setting [2] worked out at 0.366.
On to “ACAGACGAAGGAGCCGCAAAGAAGTTATTAAGGGATGAATACTCCCTCAAAATAAATATCTCTCACTTATTTAAA”, for which the “cleaved RNA product abundance” value reads like this: under setting [2], 0.176; under setting [1], 0.194.
As to “ACAGACGAAGGAGCCGCAAAGAAGTTATTAAGGGATGAATACTCCCTCAAGATAAATATCTCTCACTTATTTAAA”, the “cleaved RNA product abundance” value under setting [2] is 0.156.
Regarding “ACAGACGAAGGAGCCGCAAAGAAGTTATTAAGGGATGAATACTCCCTCAATAGAAATATCTCTCACTTATTTAAA”, under setting [1], the “cleaved RNA product abundance” value stood at 0.115.
As for “ACAGACGAAGGAGCCGCAAAGAAGTTATTAAGGGATGAATACTCCCTCAATATAAAAATCTCTCACTTATTTAAA”, the “cleaved RNA product abundance” value is, setting by setting: under setting [2], 0.511; under setting [1], 0.819.
Turning to “ACAGACGAAGGAGCCGCAAAGAAGTTATTAAGGGATGAATACTCCCTCAATATAAATATCTCTCACTTATTTAAA”, the “cleaved RNA product abundance” value under setting [2] was found to be 0.565, the “cleaved RNA product abundance” value under setting [1] came out at 0.732 and the “cleaved RNA product abundance” value under setting [3] was 0.566.
In the case of “ACAGACGAAGGAGCCGCAAAGAAGTTATTAAGGGATGAATACTCCCTCAATTTAAATATCTCTCACTTATTTAAA”, under setting [1], the “cleaved RNA product abundance” value is 0.167.
For the sequence “ACAGACGAAGGAGCCGCAAAGAAGTTATTAAGGGATGAATACTCCCTCCATATAAATATCTCTCACTTATTTAAA”, the “cleaved RNA product abundance” value reads like this: under setting [2], 0.138; under setting [1], 0.218.
On the same counts, the results for “ACAGACGAAGGAGCCGCAAAGAAGTTATTAAGGGATGAATACTCCCTCTATATAAATATCTCTCACTTATTTAAA” are 0.275 and 0.259.
For the sequence “ACAGACGAAGGAGCCGCAAAGAAGTTATTAAGGGATGAATACTCCCTTAATATAAATATCTCTCACTTATTTAAA”, the “cleaved RNA product abundance” value under setting [1] amounted to 0.47.
In the case of “ACAGACGAAGGAGCCGCAAAGAAGTTATTAAGGGATGAATACTCCGTCAATATAAATATCTCTCACTTATTTAAA”, the “cleaved RNA product abundance” value under setting [1] is 0.126.
Still for that read-out and setting: with “ACAGACGAAGGAGCCGCAAAGAAGTTATTAAGGGATGAATACTCCTTCAATATAAATATCTCTCACTTATTTAAA” the figure was 0.253.
Turning to “ACAGACGAAGGAGCCGCAAAGAAGTTATTAAGGGATGAATACTCTCTCAATATAAATATCTCTCACTTATTTAAA”, the “cleaved RNA product abundance” value under setting [1] worked out at 0.226.
For the sequence “ACAGACGAAGGAGCCGCAAAGAAGTTATTAAGGGATGAATACTGCCTCAATATAAATATCTCTCACTTATTTAAA”, the “cleaved RNA product abundance” value under setting [2] was 0.112.
As to “ACAGACGAAGGAGCCGCAAAGAAGTTATTAAGGGATGAATACTTCCTCAATATAAATATCTCTCACTTATTTAAA”, the “cleaved RNA product abundance” value came to 0.156 under setting [2] and 0.247 under setting [1].
In the case of “ACAGACGAAGGAGCCGCAAAGAAGTTATTAAGGGATGAATAGTCCCTAAATATAAATATCTCTCACTTATTTAAA”, the “cleaved RNA product abundance” value under setting [1] was 0.547.
The same measure, in the same setting: with “ACAGACGAAGGAGCCGCAAAGAAGTTATTAAGGGATGAATAGTCCCTCAAAATAAATATCTCTCACTTATTTAAA” the figure was 0.31.

Values taken from the supplement of paper PMC11780869.
